Experimental data from US20200270310A1, “MAFG AS A POTENTIAL THERAPEUTIC TARGET TO RESTORE CHEMOSENSITIVITY IN PLATINUM-RESISTANT CANCER CELLS” (FUNDACÓIN PARA LA INVESTIGACIÓN BIOMÉDICA DEL HOSPITAL …, priority 2017, published 2020).

T1: MAFG peptide M4 (IVQLKQRRRTLKNRGYAASCR) (Homo sapiens, UniProt O15525 SEQ:49-69)
T1 chain: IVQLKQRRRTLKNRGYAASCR


Experiments:
[1] = target: T1, MAFG peptide M4 (IVQLKQRRRTLKNRGYAASCR); experiment: ELONA; 20 nM aptamer, 1 ug peptide plated, 37 C 1 h; values only in figure; epitope M4 (residues 57-75 of MAFG); conditions: protein: synthetic; tags: synthetic peptide; label: 5' digoxigenin
Procedure: (§1) FIG. 9. Characterization of the interaction of aptamers with MAFG. ELONAS in which the Aptamers bound to digoxigenin (20 nM) were incubated 1 hour at 37° C. with 10 peptides (1 μg) previously attached to the plate overnight. After incubating 1 hour with antidigoxigenin-Peroxidase 1/1000, ABTS was added and at 10 minutes the absorbance at 405 nm was measured.

BSA = BSA (UniProt P02769 P02769:25-607); experiment: ELONA; background control; MAFG signal up to four times that of BSA; conditions: label: 5' digoxigenin
[2] = test system: human MAFG peptides M1-M10; experiment: ELONA of aptamers with 10 MAFG peptides; type: binding; conditions: digoxigenin aptamer 20 nM, 1 μg peptide, absorbance at 405 nm
Procedure: as §1
In order to identify compounds of the invention and starting from the amino acidic sequence of human MAFG (NCBI Reference Sequence: NP_116100.2) of: SEQ ID NO 2: […]); we designed the following 10 peptides (please refer to table below):
Peptide M4, amino acids 49-68 corresponds to the basic MAFG region containing the tyrosine residue (Tyr64), as well as the arginine residue (Arg57) required for binding to the DNA, in addition to a nuclear localization signal.

[3] = target: T2, MAFG in H23S and H23R cells (Homo sapiens, UniProt O15525); experiment: Aptacytochemistry with digoxigenin-labeled individual aptamers; type: cell-based
T2 construct: endogenous in cells; host or cells: H23S and H23R (NSCLC cells, fixed)
Procedure: Following the methodology described above, H23R cells were incubated with 6 pmol of digoxigenin-labeled aptamers (IBA Life Sciences) in selection buffer for 1 hour at room temperature. Subsequently, cells were washed three times with PBS and incubated with anti-digoxigenin conjugated with 5′ AlexaFluor 488 (R&D systems, USA) at 1/500 dilution in blocking buffer for 1 hour at room temperature, as secondary antibody. Finally, the cells were mounted on glass slides using glycerol-buffer containing p-phenylenediamine and 1/750 dilution of Dapi for nuclear staining. Controls were made by omitting the aptamer. Colocalization was assessed by confocal microcopy as described in (iii).

[4] = target: T3, MAFG in tumor samples of patients with lung cancer (Homo sapiens, UniProt O15525); experiment: Aptahistochemistry in NSCLC tumor samples; conditions: 20 tumor samples classified by MAFG mRNA levels
T3 construct: from tissue; host or cells: Formalin-fixed paraffin-embedded NSCLC tumour sections
Procedure: The formalin-fixed and paraffin-embedded tissue sections of patients with lung cancer were baked 15 minutes at 60° C. Deparaffinization was performed by two washes of xylene for 10 minutes each. Tissue sections were rehydrated by a sequential wash in 100%, 90%, 80%, 70% ethanol and distilled water for 5 minutes each. Antigen retrieval was achieved by heat treatment in a pressure cooker for 2 minutes in 10 mM citrate buffer (pH 6.5). Endogenous peroxidase activity of tissues was blocked with 0.3% […]. The primary binding reaction was performed with 10 pmol/ml of digoxigenin-conjugated aptamers overnight at room temperature. The secondary binding reaction was performed with anti-digoxigenin conjugated with POD (Roche; 1/200 dilution in TBS) for 45 minutes. Staining was done using the Immunoperoxidase DAB kit (Master Diagnostica), according to the manufacturer's instructions. The sections were counterstained with hematoxylin.
We then took advantage of the aptacytochemistry to perform an aptamer-based histochemistry in 20 tumor samples from our cohort of patients with known mRNA levels of MAFG. […] To determine the correlation between the aptahistochemistry and the mRNA levels of MAFG, we calculated the percentage of cells with positive staining from the total number of cells computed at four different areas randomly selected for each sample.

MAFG-Myc = target: T4, MAFG-Myc (Homo sapiens, UniProt O15525); experiment: Enzyme-linked oligonucleotide assay (ELONA) of aptamers and aptamer populations; type: binding; conditions: for affinity against MAFG: Example 1, individual aptamers; for binding capacity to the target: Example 3, individual sequences from SEL6MAFG; for binding signal relative to BSA protein: individual sequences from SEL6MAFG
T4 construct: Myc (C); DDK (FLAG)
Procedure: FIG. 4. Analysis of the affinity of the aptamers against MAFG. (A) Quantification of aptamer-MAFG complexes by qPCR comparing absence (dot pattern) or presence (filled pattern) of MAFG protein. […] Bars represent the mean±SEM of 2-3 experiments (B) Specificity binding assay of aptamers to MAFG performed by ELONA. MAFG-myc was plated at 50ng/well in 96-well plates followed by incubation with 5′ digoxigenin-labeled aptamers from RND40, SEL3MAFG and SEL6MAFG. The figure represents the mean±SEM of 3 independent experiments. p<0.01. (C) Aptacytochemistry in HEK-293T cells transiently transfected with MAFG-myc. Cells overexpressing MAFG were incubated with 5′ Alexafluor 488-conjugated aptamers from RND40, SEL3MAFG or SEL6MAFG (upper panel) or Myc antibody (lower panel). Confocal microscopy images corresponding to the staining of nuclei with Hoechst (blue), antibodies (red), and aptamers (green) are shown. Arrowhead indicates positive cells. Bar=13 μm. (D) Study of individual aptamers affinity performed by ELONA. Recombinant MAFG was plated at 50 ng/well in 96-well plates followed by incubation with 5′ digoxigenin-labeled individual aptamers apMAGF3F, apMAFG6F and apMAFG11F. The figure represents the mean±SD of 2 independent experiments. (E) Secondary structures of aptamers apMAGF3F, apMAFG6F and apMAFG11F obtained by bioinformatics sequence analysis using the mFold software taking into account the lower free energy (AG).
(ii) Enzyme-linked oligonucleotide assay (ELONA): Aptamers were labeled by PCR using 5′ digoxigenin-labeled F3/5′ digoxigenin-labeled R3 primers (IBA Life Sciences). To assess the enrichment of the selected population and the affinity of the individual aptamers for the target, MAFG-Myc (50 ng) was incubated with the rounds 3, 6 of aptamers or the RND40 library. OD405nm values were determined using a SpectraFluor microplate reader (TECAN, Barcelona, Spain).

H23R cells = experiment: Viability to CDDP after aptamer transfection (resistance index); type: cell-based, human; conditions: aptamer 25 nM, CDDP 72 h
Procedure: FIG. 6. Viability curves combining the best dose of aptamers (25nM) and increasing doses of CDDP. Each experimental group was exposed for 72 h to 6 different CDDP concentrations after aptamers transfection; data were normalized to each untreated control, set to 100% and represent the mean±SD of at least 3 independent experiments performed in quadruplicate at each drug concentration for each cell line analyzed 25nM of aptamers and increasing doses of CDDP in H23S/R cells.
Once identified the best dose of aptamers, cells were transfected with aptamers and treated with increased doses of CDDP to assay viability and ROS production as mentioned above. In parallel, for all the experiments, cells were seeded in 24-well plates for aptamers extraction and confirmation of aptamers transfection.
HEK293 and H23S/R cells were seeded into 96-well plates then transfected with 5, 12.5, 25, 75 and 100 nM of MAFG aptamers or treated with PBS-Mg using Jet Pei PolyPlus transfection reagent (PolyPlus Transfection, USA). The dose of 25 nM aptamer was afterwards used in combination with increased doses of CDDP to assay viability and ROS production as described above. To confirm the aptamer-transfection efficiency cells were seeded in 24-well plates for aptamer isolation and confirmation of aptamer transfection by quantitative analysis. A Myc-DDK-tagged ORF clone of MAFG the negative control pCMV6 were used for in transient transfection (OriGene, USA) in combination with MAFG-aptamers following the same procedure.

Molecule | binding result [1] | binding result (BSA) | interaction of aptamers with the 10 MAFG peptides by ELONA [2] | cellular localization of the aptamer [3] | number of dots per nucleus, H23R versus H23S [3] | percentage of positive cells in samples with higher MAFG levels [4] | affinity against MAFG (MAFG-Myc) | binding capacity to the target (MAFG-Myc) | binding signal relative to BSA protein (MAFG-Myc) | CDDP resistance index after aptamer transfection (H23R cells)
apMAFG6F (ssDNA) DNA: GCGGATGAAGACTGGTGTCGATGCATGTGTAGTGCATTTCGAGCCGTTCTATTGGTGTGCCCTAAATACGAGCAAC | binds | no binding |  |  |  |  |  |  |  | 
apMAFG3F (ssDNA) DNA: GCGGATGAAGACTGGTGTGCTGTGCTTTGACGACTGTCTAGTGGGTTTTCTTCCCCCGGCCCTAAATACGAGCAAC |  | no binding |  |  |  |  |  |  |  | 
GCGGATGAAGACTGGTGTGCTGTGCTTTGACGACTGTCTAGTGGGTTTTCTTCCCCCGGCCCTAAATACGAGCAAC (nucleic acid, chemistry not given here, DNA aptamer selected against the MAFG protein by SELEX) GCGGATGAAGACTGGTGTGCTGTGCTTTGACGACTGTCTAGTGGGTTTTCTTCCCCCGGCCCTAAATACGAGCAAC |  |  | recognized peptide M4 | also present in the cytoplasm | remarkable differences | significant increment in the percentage of positive cells | high affinity | high binding capacity to the target in the nanomolar range | four times that of the BSA protein | no changes
apMAFG11F (ssDNA) DNA: GCGGATGAAGACTGGTGTCGCGAACCGGGTTACTTTTGTCGCGGGTCGTCGGATCTGTGCCCTAAATACGAGCAAC |  | no binding |  |  |  |  |  |  |  | 
GCGGATGAAGACTGGTGTCGCGAACCGGGTTACTTTTGTCGCGGGTCGTCGGATCTGTGCCCTAAATACGAGCAAC (nucleic acid, chemistry not given here, DNA aptamer selected against the MAFG protein by SELEX) GCGGATGAAGACTGGTGTCGCGAACCGGGTTACTTTTGTCGCGGGTCGTCGGATCTGTGCCCTAAATACGAGCAAC |  |  | recognized peptide M4 |  | no differences |  | high affinity | high binding capacity to the target in the nanomolar range | four times that of the BSA protein | no changes
